Primed or numbered codes have the meaning given here. Ends that are not written are not given here. * marks the point of attachment. Biotin = O=C1N[C@H]2[C@H](CS[C@H]2CCCCC(=O)*)N1; DBCO′ = dibenzocyclooctyne

The target in assay [1] is T1, Az3.
T1 construct: Unclicked precursor of Az3db1; also called azide-peptide Az3; single half-peptide
T1 peptide: Biotin-SGGGERTHK(azide)
In words: competition ELISA: ratio of response slopes on immobilised Az3db1 without competitor / with soluble Az3. Here is the method:
(§1) We ranked the five scFv proteins 1S-5S in terms of their desired specificities and binding affinities. For this purpose, a series of ELISA-based competition assays were established, where scFvs were preincubated in solution with designated competitors before testing against immobilized target Az3db1 peptide. These included Az3db1 itself, and its constituent peptides Az3 and db1, in large (×100-fold) molar excess over the scFv proteins.
(§2) All ELISA assays used biotinylated target peptides for immobilized on streptavidin (SA) plates. For testing responses against Az3db1 (FIG. 3), a stock of the click product between peptides Az3 and db1 was made by incubating both together at 4.5 mM concentration in PBS pH 7.4 for 16 hr, conditions resulting in ≥70% conversion to the click product (FIG. 4). The resulting Az3db1 was positioned in an SA plate by incubating appropriate wells (after initial plate washing) with 100 μl of 1 pmol/μl of peptide. Dilutions of scFvs or IgG1-51 were made in PBS with 10 mg/ml bovine serum albumin (BSA) to levels typically beginning at 50 pg/μl, then in extended 2-fold dilution series from that point. Antibody or scFv dilutions were then incubated with Az3db1 target for 1 hr/room temperature, followed by treatment with appropriate secondary antibody-HRP conjugates (anti-human kappa for IgG1-51, anti-6H hexahistidine for all scFvs). After extensive washing, signals based on HRP activity from standard chromogenic substrates were read in a plate reader and collated.
Background: ELISA stands for enzyme-linked immunosorbent assay.

Assay [2] deals with T2, db1.
T2 construct: Unclicked precursor of Az3db1; also called DBCO-ARPDGG; db1 half-peptide
T2 peptide: {DBCO′}-ARPDGG
The experiment in a line: phage ELISA, scFv displayed on M13.

For assay [3], the target named is T1, Az3. In words: phage ELISA, scFv displayed on M13.
Assay [4] addresses (glycan chain)--(N-acetylmannosamine)-<azide-DBCO>-ARPDGG. The experiment in a line: flow cytometry on Jurkat cells pre-incubated with AzNAM and treated with Db1 peptide; DMSO-control cells treated with Db1 printed as 'Geo. Mean = 1.4'.
Assay [5] deals with T3, Az3db1 (also: triazole at chain A 9 to a chain's N-terminus).
T3 construct: Two synthetic peptides joined through the azide-DBCO click product; conversion to the click product was >=70%; also called click product of peptides Az3 and db1; original selection peptide
T3 peptide 1: Biotin-SGGGERTHK(azide)
T3 peptide 2: {DBCO′}-ARPDGG
The experiment in a line: competition ELISA after Friguet, plot of Ao/(Ao-A) against 1/a0 with soluble Az3Db1 competitor; one single determination. The method, then:
The binding affinity of IgG1-51 antibody towards Az3db1 was measured in an ELISA-based format by the method of Friguet et al. (1985), to yield the dissociation constant (KD) from a specific data plot. Because the total concentration of free competitor in these studies is large compared to the concentration of antibody (antibody concentration ˜0.1 nm), the simplification of the Scatchard-Klotz equation as derived by Friguet et al. was used, as: […]

Assay [6] concerns the target T3, Az3db1. In words: ELISA-based competition in solution by the method of Friguet et al.; average of four independent determinations.
Assay [7] concerns the target T2, db1. In words: competition ELISA: ratio of response slopes on immobilised Az3db1 without competitor / with soluble Db1. The method, then: as §1
as §2, with “Antibody or scFv dilutions were then incubated with Az3db1 target for 1 hr/room temperature, followed by treatment with appropriate secondary antibody-HRP conjugates (anti-human kappa for IgG1-51, anti-6H hexahistidine for all scFvs).” left out

B1: scFv-36 (scFv)
scFv: QVQLVQSGAEVKKPGASVKVSCKASGYTFTSYGISWVRQAPGQGLEWMGWINTNTGNPTYAQGFTGRSVFSLDTSVSTAYLQISSLKAEDSAVYYCARHSDDGAFDIWGKGTMVTVSSGGGGSGGGGSGGGGSQAVLTQPSSLSASPGASASLTCTLRSGINVGTYRIYWYQQKPGSPPQYLLRYKSDSDKQQGSGVPSRFSGSKDASANAGTLLISGLQSEDEADYYCAIWHSSTWVFGGGTKVTVLG
notes: VH-(GGGGS)3 linker-VL from the human phage library HuScL-6; Protein ELISAs used an E. coli hexahistidine (6H) fusion; also called scFv-2S; 2S
Regarding B1, in assay [1], the binding result is recorded as “no binding”.

B2: scFv-69 (scFv)
scFv: QVQLVQSGSELKKPGASVKVSCKASGYTFTSYAMNWVRQAPGQGLEWMGWINTNTGNPTYAQGFTGRFVFSLDTSVSTAYLQISSLKAEDTAVYYCARGAAGVFDIWGKGTTVTVSSGGGGSGGGGSGGGGSQAVLTQPSSLSASPGASASLTCTLRSGINVGTYNIYWYQQKPGSPPQFLLRYKSDSDKQQVSGVPSRFSGSKDGSANAGILLISGLQSEDEADYYCMIWHSSAWVFGGGTKLTVLG
notes: VH-(GGGGS)3 linker-VL from the human phage library HuScL-6; It was also expressed as an E. coli hexahistidine (6H) fusion
In the case of B2, the binding result in assay [2] and in assay [3] was “no binding” throughout.

B3: scFv-72 (scFv)
scFv: EVQLVESGAEVKKPGASVKVSCKASGYTFTSYAMNWVRQAPGQGLEWMGWINTNTGNPTYAQGFTGRFVFSLDTSVSTAYLQISSLKAEDTAVYYCARQRDYRMDVWGQGTMVTVSSGGGGSGGGGSGGGGSQAVLTQPSSLSASPGASASLTCTLRSGINVGTYRIYWYQQKPGSPPQYLLRYKSDSDKQQASGVPSRFSGSKDASANAGILLISGLQSEDEADYYCLIWHNNAWVFGGGTKVTVLG
notes: VH-(GGGGS)3 linker-VL from the human phage library HuScL-6; expression as a protein failed
Consider B3, for which the binding result in assay [2] and in assay [3] was “no binding” each time.

B4: scFv-64 (scFv)
scFv: EVQLVESGSELKKPGASVKVSCKASGYTFTSYAINWVRQAPGQGLEWMGWINTNTGNPTYAQGFTGRFVFSLDTSVSTAYLQISSLKAEDTAVYYCARGYYDSSGYNFDYWGKGTLVTVSSGGGGSGGGGSGGGGSQAVLTQPSSLSASPGASASLTCTLRSGINVGTYRIYWYQQKPGSPPQYLLRYKSDSDKQQGSGVPSRFSGSKDASANAGILLISGLQSEDEADYYCMIWHSSAWVFGGGTKLTVLG
notes: as for B2
B4: the binding result in assay [2] and in assay [3] was “no binding” in each case.

B5: IgG1-51 (antibody, V domains shown)
VH: QMQLVQSGSELKKPGASVKVSCKASGYTFTSYAMNWVRQAPGQGLEWMGWINTNTGNPTYAQGFTGRFVFSLDTSVSTAYLQISSLKAEDTAVYYCARFDRPRGAFDIWGQGTLVTVSS
VL: QAVLTQPSSLSASPGASASLTCTLRSGINVGTYRIYWYQQKPGSPPQYLLRYKSDSDKQQGSGVPSRFSGSKDASANAGILLISGLQSEDEADYYCMIWHSSAWVFGGGTKLTVLG
notes: VH and VL of scFv-51 fused in frame to human Cgamma1 and Ckappa and co-expressed in Hek293 cells; also called Ab51; antibody 51; not shown: Human Gamma1 C-region, Uniprot code P01857.1; Human Kappa C-region, Uniprot code P01834.2
B5 showed a geometric mean fluorescence (Geo. Mean) in assay [4] of 226. Moreover, the dissociation constant Kd (usually the concentration at which binding is half-saturated) in assay [5] turned out to be 175 nM; in assay [6] it was 160 nM.

B6: scFv-44 (scFv)
scFv: QVQLVQSGAEVKKPGSSVKVSCKASGYTFADYAINWVRQAPGQGLEWMGWINTNTGNPTYAQGFTGRFVFSLDTSVSTAYLQISSLEAEDTAVYYCARHFSGYSLDAVDIWGQGTLVTVSSGGGGSGGGGSGGGGSQAVLTQPSSLSASPGTSASLTCTLRSDINVGAYRIYWYKHKAGSPPQFLLRFKSDSDNYRGSGVPGRFSGSKDASANAGILLISGLQSEDEADYYCAIWHSSTWVFGGGTKLTVLG
notes: VH-(GGGGS)3 linker-VL from the human phage library HuScL-6; Protein ELISAs used an E. coli hexahistidine (6H) fusion; also called scFv-3S; 3S
B6: the binding result in assay [1] and in assay [7] was “no binding” throughout.

B7: scFv-83 (scFv)
scFv: QVQLVQSGAEVKKPGASVKVSCKASGYSFTSYAMNWVRQAPGQGLEWMGWINTNTGNPMYAQGFTGRFVFSLDTSVSTAYLEVSSLKAEDTAVYFCARYNAMDVWGQGTTVTVSSGGGGSGGGGSGGGGSQAVLTQPSSLSASPGASASLTCTLRSGINVGTYRIYWYQQKPGSPPQYLLRYKSDSDKQQGSGVPSRFSGSKDASANAGILLISGLQSEDEADYYCMIWHSSAWVFGGGTKVTVLG
notes: as for B3
For B7, the binding result in assay [2] and in assay [3] was “no binding” in each case.

B8: scFv-18 (scFv)
scFv: QVQLVESGSELKKPGASVKVSCKASGYTFTNYAMNWVRQAPGQGLEWLGWINTNTGNPTYAQGFTGRFVFSLDTSVSTAYLQISSLKAEDTAVYYCARGSLGGTFDYWGQGTPVTVSSGGGGSGGGGSGGGGSQAVLTQPSSLSASPGASASLTCTLRSGINVGTYRIYWYQQKPGSPPQYLLRYKSDSDKHQDSGVPSRFSGSTDASANAGILLISGLQSEDEADYYCMIWHSRAWVFGGGTRGEIKR
notes: VH-(GGGGS)3 linker-VL from the human phage library HuScL-6; Protein ELISAs used an E. coli hexahistidine (6H) fusion; also called scFv-1S; 1S
In the case of B8, the binding result in assay [1] and in assay [7] was “no binding” in each case.

For the origin of these results see patent US20240002536A1 (GENERAL HOSPITAL, published 2024).
